Source: patent US20060084162A1

Molecular target: Y289L_C342T mutant of the catalytic domain (residues 130-402) of bovine β(1,4)-galactosyltransferase I (bovine) (UniProt P08037)
Assay: cell-based or functional assay

UniProt P08037, sequence (P08037 other isoform, or with tags, fused parts or gaps Y289L C342T Y289L C342T): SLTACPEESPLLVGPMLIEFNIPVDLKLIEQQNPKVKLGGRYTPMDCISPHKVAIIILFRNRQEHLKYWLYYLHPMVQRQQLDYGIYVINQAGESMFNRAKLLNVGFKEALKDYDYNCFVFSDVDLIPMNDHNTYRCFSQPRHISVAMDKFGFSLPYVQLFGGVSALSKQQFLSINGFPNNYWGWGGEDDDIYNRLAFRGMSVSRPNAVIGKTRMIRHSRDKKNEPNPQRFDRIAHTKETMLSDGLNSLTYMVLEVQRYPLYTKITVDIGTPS

Which results are given for “bovine α-Lactalbumin (Sigma) (from UniProt P00711 20-142)”?
GalNAc-T activity of Y289L mutant with acceptor Glc (100 mM), 500 µM UDP-GalNAc, +LA 55 µM (the value without LA in the same row is 2.6): 34.8 pmol/min/ng; GalNAc-T activity of Y289L mutant with acceptor GlcNAc (100 mM), 500 µM UDP-GalNAc, +LA 55 µM (the value without LA in the same row is 31.3): 3.3 pmol/min/ng; GalNAc-T activity of Y289L mutant with acceptor Glucosamine (100 mM), 500 µM UDP-GalNAc, +LA 55 µM (the value without LA in the same row is 1.8): 5 pmol/min/ng
